Test results from patent US20200172619A1 (UNIVERSIT T STUTTGART, published 2020).

B1: Fv13.7x-Fc1k (Fc fusion)
chain 1: HVQLVQSGAEVKKPGSSVKVSCKASGYTFTDFYINWVRQAPGQGLEWIGEIVPSQGEAKYNDKFKARVTITADKSTSTAYMELSSLRSEDTAVYYCARWDFLDYWGQGTTVTVSSGTGGGSGPSVFLFPPKPKDTLMISRTPEVTCVVVDVSHEDPEVKFNWYVDGVEVHNAKTKPREEQYNSTYRVVSVLTVLHQDWLNGKEYKCKVSNKGLPSSIEKTISKAKGQPREPSVFIFPPSDEQLKSGTASVVCLVNNFYPRDIAVEWEVDNALQSGNSQESVTEQDSKDSTYSLSSTLTLSKADYEKHKVYSCSVMHEALHNHYTQKSFNRGEC
chain 2: DVQMTQSPSSLSASVGDRVTITCRSSQSLLHSNGNTYLHWYQQKPGKAPKLLIYTVSNRFSGVPSRFSGSGSGTDFTLTISSLQPEDFATYYCSQSTHVPYTFGGGTKVEIKGTGGGSGPSVFLFPPKPKDTLMISRTPEVTCVVVDVSHEDPEVKFNWYVDGVEVHNAKTKPREEQYNSTYRVVSVLTVLHQDWLNGKEYKCKVSNKGLPSSIEKTISKAKGQPREPSVFPLAPSSKSTSGGTAALGCLVKDYFPSDIAVEWESGALTSGVHTFPAVLQSSGLYSLSSVVTVPSSSLGTQTYSCSVMHEALHNHYTQKSVEPKSC
notes: CH2 carries A327G, A330S and P331S (EU numbering)
B2: 13.7N-CD3N-hFc1k (bispecific antibody)
chain 1: HVQLVQSGAEVKKPGSSVKVSCKASGYTFTDFYINWVRQAPGQGLEWIGEIVPSQGEAKYNDKFKARVTITADKSTSTAYMELSSLRSEDTAVYYCARWDFLDYWGQGTTVTVSSGGGGSGGGGSGGGGSDVQMTQSPSSLSASVGDRVTITCRSSQSLLHSNGNTYLHWYQQKPGKAPKLLIYTVSNRFSGVPSRFSGSGSGTDFTLTISSLQPEDFATYYCSQSTHVPYTFGGGTKVEIKAAADKTHTCPPCPAPPVAGPSVFLFPPKPKDTLMISRTPEVTCVVVDVSHEDPEVKFNWYVDGVEVHNAKTKPREEQYNSTYRVVSVLTVLHQDWLNGKEYKCKVSNKGLPSSIEKTISKAKGQPREPSVFPLAPSSKSTSGGTAALGCLVKDYFPSDIAVEWESGALTSGVHTFPAVLQSSGLYSLSSVVTVPSSSLGTQTYSCSVMHEALHNHYTQKSVEPKSC
chain 2: DIQMTQSPSSLSASVGDRVTITCRASQDIRNYLNWYQQKPGKAPKLLIYYTSRLHSGVPSRFSGSGSGTDFTFTISSLQPEDIATYYCQQGNTLPWTFGQGTKLEIKRGGGGSGGGGSGGGGSQVQLVQSGAEVKKPGSSVKVSCKASGGTFSGYTMNWVRQAPGQGLEWMGLINPYKGVSTYNGKFKDRVTITADKSTSTAYMELSSLRSEDTAVYYCARSGYYGDSDWYFDVWGQGTLVTVSSSGGGSGGGGSDKTHTCPPCPAPPVAGPSVFLFPPKPKDTLMISRTPEVTCVVVDVSHEDPEVKFNWYVDGVEVHNAKTKPREEQYNSTYRVVSVLTVLHQDWLNGKEYKCKVSNKGLPSSIEKTISKAKGQPREPSVFIFPPSDEQLKSGTASVVCLVNNFYPRDIAVEWEVDNALQSGNSQESVTEQDSKDSTYSLSSTLTLSKADYEKHKVYSCSVMHEALHNHYTQKSFNRGECGGGGSGGGGSGGGGSGTGGSGG
notes: also called scFv13.7-CD3-Hinge-Fc1k

Tests used:
[1] = target: T1, TNFR1 on the surface of cells (HT1080, HeLa, Kym-1) (human, UniProt P19438 30-455); experiment: cell-based or functional assay
T1 sequence (looked up): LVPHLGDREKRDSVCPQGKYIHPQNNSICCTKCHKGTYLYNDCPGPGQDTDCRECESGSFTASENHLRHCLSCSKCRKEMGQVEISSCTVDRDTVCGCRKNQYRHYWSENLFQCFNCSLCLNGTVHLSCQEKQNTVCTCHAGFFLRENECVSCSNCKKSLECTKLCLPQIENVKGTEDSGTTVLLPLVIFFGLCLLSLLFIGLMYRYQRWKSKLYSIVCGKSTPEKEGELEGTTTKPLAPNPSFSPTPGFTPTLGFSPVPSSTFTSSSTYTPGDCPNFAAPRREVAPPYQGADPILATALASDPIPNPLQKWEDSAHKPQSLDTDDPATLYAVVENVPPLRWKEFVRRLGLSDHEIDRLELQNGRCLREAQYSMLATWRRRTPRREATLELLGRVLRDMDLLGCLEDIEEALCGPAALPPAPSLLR

[2] = target: T2, human TNFR1-Fc fusion protein (human, UniProt P19438 30-211); experiment: ELISA, human TNFR1-Fc (CHO-produced protein, Example 14)
T2 construct: Provided by Baliopharm AG; Coated at 1 ug/ml in the ELISA; also called huTNFR1-Fc; immobilized human TNFR1; not shown: Fc part not described
T2 sequence (looked up): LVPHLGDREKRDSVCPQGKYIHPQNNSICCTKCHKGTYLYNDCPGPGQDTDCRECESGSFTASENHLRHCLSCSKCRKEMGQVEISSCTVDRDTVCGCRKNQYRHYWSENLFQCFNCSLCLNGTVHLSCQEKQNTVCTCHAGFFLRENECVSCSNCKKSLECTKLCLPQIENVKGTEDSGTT
Procedure: (§1) Microtiter plates were coated with 100 μl of TNFFR1-Fc fusion protein (1 μg/ml in PBS) and incubated at 4° C. overnight. The residual binding sites were blocked with 2% MPBS (skim milk in PBS, 200 μl per well) at room temperature for 2 hours and subsequently washed twice with PBS. 100 μl of the samples diluted in 2% MPBS were incubated at room temperature for 1 hour prior to the last incubation step with 100 μl of the HRP conjugated detection antibodies in 2% MPBS. Bound protein was detected with 100 μl TMB substrate solution, the HRP-reaction was stopped by the addition of 50 μl 1 M H2SO4 and the absorption at the wavelength of 450 nm was measured using the Infinite microtiter plate reader (TECAN, Maennedorf, Switzerland). Between each incubation step and in advance of the detection, the plates were washed three times with PBST and twice with PBS.

[3] = target: T2, human TNFR1-Fc fusion protein; experiment: QCM (Attana), real-time binding, one-to-one fit
Procedure: (§2) FIG. 36. […] Five concentrations between 128 nM and 4 nM were used to generate the kinetic data in b) and a one-to-one binding algorithm was employed for fitting.

[4] = target: T1, TNFR1 on the surface of cells (HT1080, …); experiment: cell-based or functional assay; remark: listed apart in the source
[5] = target: T2, human TNFR1-Fc fusion protein; experiment: QCM (Attana), real-time binding, 128 nM to 4 nM, one-to-one fit
Procedure: as §2

[6] = target: T2, human TNFR1-Fc fusion protein; experiment: ELISA, immobilized human TNFR1-Fc
Procedure: as §1

[7] = target: T1, TNFR1 on the surface of cells (HT1080, …); experiment: cell-based or functional assay; remark: listed apart in the source
[8] = target: T2, human TNFR1-Fc fusion protein; experiment: ELISA, immobilized human TNFR1-Fc; remark: listed apart in the source
[9] = target: T2, human TNFR1-Fc fusion protein; experiment: ELISA, human TNFR1-Fc fusion protein
Procedure: Microtiter plates were coated with 100 μl of TNFFR1-Fc fusion protein (1 μg/ml in PBS) and incubated at 4° C. overnight.

[10] = target: T1, TNFR1 on the surface of cells (HT1080, …); experiment: cell-based or functional assay; remark: listed apart in the source
[11] = target: T3, CD3 on the surface of CD3-transfected Jurkat cells; experiment: flow cytometry on CD3-transfected Jurkat cells
T3 construct: whole, on cells; also called CD3 expressing Jurkat cells
T3 sequence (P07766 23-207): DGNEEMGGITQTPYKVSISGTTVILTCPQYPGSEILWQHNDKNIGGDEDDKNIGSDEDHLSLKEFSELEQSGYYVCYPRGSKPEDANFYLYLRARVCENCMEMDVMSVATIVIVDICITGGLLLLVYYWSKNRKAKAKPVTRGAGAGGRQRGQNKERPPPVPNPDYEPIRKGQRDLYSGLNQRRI
Procedure: (§3) Cells were detached and transferred to a 96 well microtiter plate at a concentration of 100.000-250.000 per well in 100 μl PBA (2% FCS, 0.2% NaN3 in sterile PBS).

[12] = target: T1, TNFR1 on the surface of cells (HT1080, …); experiment: flow cytometry on TNFR1-expressing HT1080 cells
Procedure: as §3

| Binder | factor of increased inhibitory potential (IL-8 inhibition) compared to ATROSAB [1] | fold reduced bioactivity (IL-8 inhibition) compared to Fab13.7 [1] | EC50 [2] | koff [3] | kon [3] | IC50, Cell death induction [nM] (Kym-1 cells, 0.01 nM TNF) [4] | IC50, IL-6 [nM] (HeLa cells, 0.1 nM TNF) [4] | IC50, IL-8 [nM] (HT1080 cells, 0.1 nM TNF) [4] | Kd [5] | fold reduced binding affinity compared with Fab13.7 [6] | IL-8 Inhibition IC50 [7] | EC50 [8] | EC50 [9] | Cytotxicity IC50 [10] | EC50 [11] | EC50 [12] |
| --- | --- | --- | --- | --- | --- | --- | --- | --- | --- | --- | --- | --- | --- | --- | --- | --- |
| B1 | 2.8 fold | 3.7 fold | 0.37 nM | 0.000983 s⁻¹ | 369000 M⁻¹ s⁻¹ | 16.2 nM | 54.5 nM | 24.2 nM | 2.66 nM | 2.1 fold | 48 nM | 1.9 nM | – | – | – | – |
| B2 | – | – | – | – | – | – | – | – | – | – | – | – | 3.5 nM | 0.8 nM | 1.6 nM | 3.7 nM |
